The values that follow come from publication PMC12509998.

Assay [1] has as its target eukaryotic elongation factor 2 kinase (UniProt O00418).
Assay [2] shares this target. The source holds these as a separate data set.

Sequence of eukaryotic elongation factor 2 kinase (O00418 whole entry): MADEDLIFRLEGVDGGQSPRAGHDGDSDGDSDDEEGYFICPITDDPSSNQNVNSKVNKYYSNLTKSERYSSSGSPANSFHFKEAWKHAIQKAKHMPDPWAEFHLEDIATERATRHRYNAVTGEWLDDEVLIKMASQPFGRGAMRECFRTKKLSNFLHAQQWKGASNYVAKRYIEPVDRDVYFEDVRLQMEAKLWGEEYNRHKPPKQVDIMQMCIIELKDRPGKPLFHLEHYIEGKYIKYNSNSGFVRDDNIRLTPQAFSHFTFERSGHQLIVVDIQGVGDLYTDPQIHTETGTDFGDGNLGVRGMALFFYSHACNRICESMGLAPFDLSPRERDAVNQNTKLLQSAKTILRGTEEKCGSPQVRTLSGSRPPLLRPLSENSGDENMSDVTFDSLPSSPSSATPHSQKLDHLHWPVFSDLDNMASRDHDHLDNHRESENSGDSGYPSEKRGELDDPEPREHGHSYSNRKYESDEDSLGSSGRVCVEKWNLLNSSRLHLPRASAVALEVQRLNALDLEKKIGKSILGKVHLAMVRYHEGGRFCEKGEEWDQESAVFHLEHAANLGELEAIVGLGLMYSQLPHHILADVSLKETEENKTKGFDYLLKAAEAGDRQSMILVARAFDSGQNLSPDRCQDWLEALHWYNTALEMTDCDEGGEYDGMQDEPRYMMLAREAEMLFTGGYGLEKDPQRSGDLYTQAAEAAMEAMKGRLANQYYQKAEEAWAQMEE

“calmodulin, full-length (from UniProt P0DP23 1-149) (natural protein)” gave a KCaM (concentration of CaM at half-maximal activity) of T348-phosphorylated eEF-2K toward 150 μM peptide substrate, 50 μM free Ca2+ in assay [1] of 67 nM. This substance displayed a KCaM^app of eEF-2K (0.5 nM) activity toward 5 μM yeast eEF-2, 50 μM free Ca2+ in assay [2] of 121 nM.

Regarding “isolated C-terminal lobe of calmodulin (residues 76-148) (from UniProt P0DP23 77-149) (domain or fragment)”, the KCaM (concentration of CaMC at half-maximal activity) of T348-phosphorylated eEF-2K toward 150 μM peptide substrate, 50 μM free Ca2+ in assay [1] was 85 nM. In addition, the KCaM^app of eEF-2K (0.5 nM) activity toward 5 μM yeast eEF-2, 50 μM free Ca2+ in assay [2] came to 156 nM.
